According to patent US20250002577A1 (ONCORESPONSE, published 2025):

Key:
[1] = biological target: T1, human LILRA4 on HEK293-6E cells (human, UniProt P59901 24-499); assay: flow cytometry, HEK293-6E transfectants
T1 construct: whole, on cells; also called hLILRA4
Experimental: (§1) To determine that the parent chimera anti LILRB2/1 antibody specifically binds to LILRB2 and LILRB1 and not to other LILRB and LILRA family members, a cross-reactivity assay was performed. Cross-reactivity was assessed by antibody binding to transiently transfected HEK293-6E cells by flow cytometry. Binding was evaluated to HEK293-6E cells transiently transfected with human LILRB-1, -2, -3, -4, and 5 plasmids (Origene, Nos. RC219949, RC217935, RC211228, RC220932, RC206516) or to cells transiently transfected with human LILRA-1, -2, -4, -5, and -6 plasmids (Origene, Nos. RC210808, RC205626, RC220452, RC212310 RC212965). […] At a concentration of 1 μg/mL, no binding of B21A1 or the humanized variants to LILRB-3, -4, or -5 was observed (Table 7). Additionally, no binding to LILRA-1, -2, -4, -5, or -6 was observed, confirming the specificity of B21A1 and its humanized variants to LILRB1 and LILRB2 (Table 8).

[2] = biological target: T2, human LILRB3 on HEK293-6E cells (human, UniProt O75022 24-631); assay: flow cytometry, HEK293-6E transfectants
T2 construct: whole, on cells; also called hLILRB3
Experimental: as §1

[3] = biological target: T3, human LILRB5 on HEK293-6E cells (human, UniProt O75023 24-590); assay: flow cytometry, HEK293-6E transfectants
T3 construct: whole, on cells; also called hLILRB5
Experimental: as §1

[4] = biological target: T4, human LILRA6 on HEK293-6E cells (human, UniProt Q6PI73 24-481); assay: flow cytometry, HEK293-6E transfectants
T4 construct: whole, on cells; also called hLILRA6
Experimental: as §1

[5] = biological target: T5, human LILRA2 on HEK293-6E cells (human, UniProt Q8N149 24-483); assay: flow cytometry, HEK293-6E transfectants
T5 construct: whole, on cells; also called hLILRA2
Experimental: as §1

human LILRB1 on cells [6] = biological target: T6, human LILRB1 on cells (human, UniProt Q8NHL6 24-650); assay: flow cytometry, HEK293-6E transfectants
T6 construct: whole, on cells; also called hLILRB1; LILRB1-expressing 721.221 cells
Experimental: as §1

[7] = biological target: T7, human LILRA5 on HEK293-6E cells (human, UniProt A6NI73 42-299); assay: flow cytometry, HEK293-6E transfectants
T7 construct: whole, on cells; also called hLILRA5
Experimental: as §1

[8] = biological target: T8, human LILRB4 on HEK293-6E cells (human, UniProt Q8NHJ6 22-448); assay: flow cytometry, HEK293-6E transfectants
T8 construct: whole, on cells; also called hLILRB4
Experimental: as §1

[9] = biological target: T9, human LILRA1 on HEK293-6E cells (human, UniProt O75019 17-489); assay: flow cytometry, HEK293-6E transfectants
T9 construct: whole, on cells; also called hLILRA1
Experimental: as §1

human LILRB2 on cells [10] = biological target: T10, human LILRB2 on cells (human, UniProt Q8N423 22-597); assay: flow cytometry, HEK293-6E transfectants
T10 construct: whole, on cells; also called hLILRB2; LILRB2-HEK293T
Experimental: as §1

[11] = biological target: T11, recombinant cynomolgus LILRB1 (cynomolgus); assay: MSD ELISA, coated antigen, purified IgG1
T11 construct: Bought protein
Experimental: (§2) Recombinant human and cynomolgus LILRB1 proteins (R&D Systems, No. 8989-T2-050; ACROBiosystems, No. CDJ-C52H3) and recombinant human and cynomolgus LILRB2 proteins (ACROBiosystems, No. LI2-H5220; No. L12-C52H3) were diluted in PBS to 4 μg/mL and added to a multi-array 384-well high-binding plates (MSD, No. L21XA4) at 10 μL/well and incubated at 4° C. overnight. The plates were washed several times with Wash Buffer (0.05% Tween® 20 in PBS), using a microplate washer and then blocked with 70 μL/well of 5% BSA in PBS for 1 hour (h) at room temperature (RT) with shaking at 700 rpm. After blocking, 20 μL/well of anti-LILRB2/LILRB1 antibodies or isotype control were added to the plates, and the plates were sealed and incubated for 2 h at RT with shaking at 700 rpm. After primary antibody binding, plates were washed five times with 70 μL/well of Wash Buffer (0.05% Tween® 20 in PBS) using a microplate washer. Secondary detection antibody (SULFO-TAG™-labeled goat anti-human IgG antibody (MSD, No. R32AJ-1)) was diluted to 4 μg/mL in assay diluent (1% BSA in PBS) and 10 μL/well was added to plates and incubated at RT protected from light for 1 h, with shaking at 700 rpm. Following incubation, plates were washed five times with Wash Buffer, using a microplate washer. After removal of the final wash, 35 μL/well of MSD Gold Read Buffer B (MSD, No. R60AM-4) was added to all wells using a Multidrop combo washer/dispenser, and plates were read using MESO Sector 600MM instrument (MSD) within 5 minutes (min) after addition of Read Buffer. Signals as counts per minute (cpm) were recorded. EC₅₀ values were calculated using GraphPad Prism based on log concentration of the primary antibodies versus cpm values.

[12] = biological target: T12, recombinant human LILRB2-His (human, UniProt Q8N423 22-461, limits assumed); assay: MSD ELISA, coated antigen, purified IgG1
T12 construct: Bought protein; also called LILRB2 protein
Experimental: as §2

[13] = biological target: T13, recombinant human LILRB1-His (human, UniProt Q8NHL6 24-458); assay: MSD ELISA, coated antigen, purified IgG1
T13 construct: Bought protein; also called LILRB1 protein
Experimental: as §2

human LILRB2 on cells [14] = biological target: T10, human LILRB2 on cells; assay: flow cytometry, LILRB2-HEK293T cells, AF647-labelled antibody
Experimental: (§3) While LILRB2 expression is mostly restricted to myeloid cells, LILRB1 has a broader expression on immune cell subsets, including B cells, T cells and NK cells.
(§4) Frozen cells were removed from storage in vapor phase liquid nitrogen and thawed by gentle swirling in a water bath at 37° C., then resuspended in DMEM media with 10% FBS. Cells were placed in a 15 mL conical tube and centrifuged at 300×g for 5 min, then supernatant was removed. Cells were resuspended in DMEM+10% FBS at a cell density of 2×10⁵ cells/mL in a T75 flask for culturing, and incubated at 37° C., 5% CO₂ for 3 days before passaging. Cells were passaged when the cell density reached 1×10⁶ cell/mL. On the day of the assay, cells were centrifuged, then supernatant was removed. Cells were resuspended in Blocking Buffer B (FACS Buffer containing 10% FBS and 0.5 mg/mL human IgG1 (Athens Research, No. 16-16-090707-1M)+0.05% NaN₃, 5% (w/v)) in a 15 mL conical tube, then incubated at 4° C. for 30 min. […] Cells were incubated with antibodies at 4° C. for 1 h. Cells were washed twice in FACS Buffer (PBS containing 2 mM EDTA+1% FBS+0.05% NaN₃) and then stained with for 10 min with Zombie Violet™ fixable viability dye (BioLegend, No. 423114) at RT, washed with FACS Buffer and resuspend in 75 μL of FACS Buffer for acquisition on a BD FACSymphony™ or BD FACSCanto™ II flow cytometer (BD Biosciences), as described in Example 6.

human LILRB1 on cells [15] = biological target: T6, human LILRB1 on cells; assay: flow cytometry, 721.221 cells, AF647-labelled antibody
Experimental: as §3, §4

T7 sequence (A6NI73 42-299): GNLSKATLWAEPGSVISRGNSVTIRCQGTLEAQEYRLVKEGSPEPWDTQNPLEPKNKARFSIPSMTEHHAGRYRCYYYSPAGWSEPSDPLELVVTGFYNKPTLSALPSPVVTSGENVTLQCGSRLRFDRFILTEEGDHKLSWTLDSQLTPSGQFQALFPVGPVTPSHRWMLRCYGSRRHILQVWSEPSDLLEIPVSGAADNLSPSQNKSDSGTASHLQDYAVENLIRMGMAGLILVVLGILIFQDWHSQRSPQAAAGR
T13 sequence (Q8NHL6 24-458 limits assumed): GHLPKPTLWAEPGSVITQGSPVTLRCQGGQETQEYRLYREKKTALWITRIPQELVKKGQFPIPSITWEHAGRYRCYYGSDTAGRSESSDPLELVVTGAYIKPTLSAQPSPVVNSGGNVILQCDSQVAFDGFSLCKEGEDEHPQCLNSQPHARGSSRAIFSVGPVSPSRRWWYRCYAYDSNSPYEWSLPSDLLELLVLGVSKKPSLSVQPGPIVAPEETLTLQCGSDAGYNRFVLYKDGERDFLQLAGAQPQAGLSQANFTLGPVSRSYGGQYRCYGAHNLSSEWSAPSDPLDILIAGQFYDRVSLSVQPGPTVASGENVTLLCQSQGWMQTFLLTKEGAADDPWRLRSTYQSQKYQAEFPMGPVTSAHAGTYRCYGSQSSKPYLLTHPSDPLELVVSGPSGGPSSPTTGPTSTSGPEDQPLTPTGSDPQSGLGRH
T9 sequence (O75019 17-489): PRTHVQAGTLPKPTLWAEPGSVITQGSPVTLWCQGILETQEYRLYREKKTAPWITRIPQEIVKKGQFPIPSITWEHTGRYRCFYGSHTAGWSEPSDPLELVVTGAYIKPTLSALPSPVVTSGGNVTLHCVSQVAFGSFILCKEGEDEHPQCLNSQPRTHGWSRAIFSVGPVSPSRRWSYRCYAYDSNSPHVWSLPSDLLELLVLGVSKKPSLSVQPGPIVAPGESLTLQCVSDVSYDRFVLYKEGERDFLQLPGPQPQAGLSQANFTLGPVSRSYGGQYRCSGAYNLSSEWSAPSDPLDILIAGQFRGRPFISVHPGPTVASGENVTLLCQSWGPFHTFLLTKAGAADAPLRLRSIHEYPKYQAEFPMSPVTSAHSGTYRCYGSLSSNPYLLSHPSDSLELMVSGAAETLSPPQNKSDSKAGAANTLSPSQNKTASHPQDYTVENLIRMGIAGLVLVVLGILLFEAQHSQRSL
T12 sequence (Q8N423 22-461 limits assumed): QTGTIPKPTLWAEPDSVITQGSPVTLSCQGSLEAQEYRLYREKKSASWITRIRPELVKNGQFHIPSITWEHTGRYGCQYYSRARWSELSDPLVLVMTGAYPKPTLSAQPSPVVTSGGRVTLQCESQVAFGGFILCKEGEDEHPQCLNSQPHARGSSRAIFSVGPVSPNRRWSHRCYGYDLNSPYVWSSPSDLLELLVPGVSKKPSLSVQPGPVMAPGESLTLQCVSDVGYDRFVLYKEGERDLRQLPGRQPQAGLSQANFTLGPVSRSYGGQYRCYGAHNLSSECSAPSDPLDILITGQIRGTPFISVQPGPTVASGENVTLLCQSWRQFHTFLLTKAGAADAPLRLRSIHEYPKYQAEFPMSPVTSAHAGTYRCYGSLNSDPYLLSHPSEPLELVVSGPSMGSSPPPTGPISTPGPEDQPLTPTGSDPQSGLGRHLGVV
T2 sequence (O75022 24-631): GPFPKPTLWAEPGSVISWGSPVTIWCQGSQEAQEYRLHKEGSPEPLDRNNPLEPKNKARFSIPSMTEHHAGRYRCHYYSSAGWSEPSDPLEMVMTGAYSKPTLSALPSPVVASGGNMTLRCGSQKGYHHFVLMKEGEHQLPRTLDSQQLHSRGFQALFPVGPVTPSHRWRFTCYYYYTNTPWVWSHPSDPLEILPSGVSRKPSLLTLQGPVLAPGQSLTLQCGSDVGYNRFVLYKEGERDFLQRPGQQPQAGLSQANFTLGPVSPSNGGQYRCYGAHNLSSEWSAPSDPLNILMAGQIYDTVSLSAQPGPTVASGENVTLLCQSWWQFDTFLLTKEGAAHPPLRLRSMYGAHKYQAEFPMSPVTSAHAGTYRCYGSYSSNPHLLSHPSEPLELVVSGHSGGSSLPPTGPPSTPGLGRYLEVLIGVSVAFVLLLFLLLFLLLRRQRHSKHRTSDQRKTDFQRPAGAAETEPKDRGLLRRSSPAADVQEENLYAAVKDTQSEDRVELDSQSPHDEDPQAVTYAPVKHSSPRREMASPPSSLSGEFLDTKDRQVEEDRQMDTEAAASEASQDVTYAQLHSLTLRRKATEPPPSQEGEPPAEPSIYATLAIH
T5 sequence (Q8N149 24-483): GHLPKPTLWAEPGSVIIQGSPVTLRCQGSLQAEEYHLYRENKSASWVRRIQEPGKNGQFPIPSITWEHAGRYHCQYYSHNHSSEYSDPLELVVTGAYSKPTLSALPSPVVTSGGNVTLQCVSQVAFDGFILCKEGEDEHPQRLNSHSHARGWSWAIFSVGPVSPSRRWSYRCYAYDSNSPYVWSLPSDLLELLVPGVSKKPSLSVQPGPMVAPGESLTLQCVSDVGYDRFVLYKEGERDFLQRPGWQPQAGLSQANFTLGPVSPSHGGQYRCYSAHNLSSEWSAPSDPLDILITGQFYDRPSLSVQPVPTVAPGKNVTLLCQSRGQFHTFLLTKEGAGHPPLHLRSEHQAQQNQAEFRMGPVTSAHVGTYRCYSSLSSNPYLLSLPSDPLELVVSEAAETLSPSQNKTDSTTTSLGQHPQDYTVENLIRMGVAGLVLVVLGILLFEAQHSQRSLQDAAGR
T4 sequence (Q6PI73 24-481): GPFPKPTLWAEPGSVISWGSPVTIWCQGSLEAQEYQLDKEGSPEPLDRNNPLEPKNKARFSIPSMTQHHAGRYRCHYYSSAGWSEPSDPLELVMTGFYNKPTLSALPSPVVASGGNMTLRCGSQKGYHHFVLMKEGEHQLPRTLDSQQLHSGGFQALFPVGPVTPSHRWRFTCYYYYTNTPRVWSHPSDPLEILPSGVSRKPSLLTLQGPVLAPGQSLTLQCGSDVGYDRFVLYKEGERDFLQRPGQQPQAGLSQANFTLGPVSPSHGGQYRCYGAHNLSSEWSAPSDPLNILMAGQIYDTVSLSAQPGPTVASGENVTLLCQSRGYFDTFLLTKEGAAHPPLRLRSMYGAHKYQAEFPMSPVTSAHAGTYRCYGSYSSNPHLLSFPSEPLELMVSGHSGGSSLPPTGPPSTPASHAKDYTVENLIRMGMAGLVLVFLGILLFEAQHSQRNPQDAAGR
T3 sequence (O75023 24-590): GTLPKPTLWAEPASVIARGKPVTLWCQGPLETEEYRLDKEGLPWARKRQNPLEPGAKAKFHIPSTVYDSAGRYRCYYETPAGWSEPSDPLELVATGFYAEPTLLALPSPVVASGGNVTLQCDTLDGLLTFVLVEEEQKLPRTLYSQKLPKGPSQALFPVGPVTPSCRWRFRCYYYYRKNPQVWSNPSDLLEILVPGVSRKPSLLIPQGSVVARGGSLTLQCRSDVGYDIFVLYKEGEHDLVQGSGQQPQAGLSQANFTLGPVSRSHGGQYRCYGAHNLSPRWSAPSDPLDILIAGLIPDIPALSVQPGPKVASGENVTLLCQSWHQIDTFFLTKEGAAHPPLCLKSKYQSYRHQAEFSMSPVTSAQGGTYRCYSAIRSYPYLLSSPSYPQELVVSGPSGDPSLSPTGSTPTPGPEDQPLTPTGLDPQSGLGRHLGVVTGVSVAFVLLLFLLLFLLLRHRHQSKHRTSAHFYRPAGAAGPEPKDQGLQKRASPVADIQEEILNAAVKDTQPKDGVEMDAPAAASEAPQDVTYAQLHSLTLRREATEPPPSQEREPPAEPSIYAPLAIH
T6 sequence (Q8NHL6 24-650): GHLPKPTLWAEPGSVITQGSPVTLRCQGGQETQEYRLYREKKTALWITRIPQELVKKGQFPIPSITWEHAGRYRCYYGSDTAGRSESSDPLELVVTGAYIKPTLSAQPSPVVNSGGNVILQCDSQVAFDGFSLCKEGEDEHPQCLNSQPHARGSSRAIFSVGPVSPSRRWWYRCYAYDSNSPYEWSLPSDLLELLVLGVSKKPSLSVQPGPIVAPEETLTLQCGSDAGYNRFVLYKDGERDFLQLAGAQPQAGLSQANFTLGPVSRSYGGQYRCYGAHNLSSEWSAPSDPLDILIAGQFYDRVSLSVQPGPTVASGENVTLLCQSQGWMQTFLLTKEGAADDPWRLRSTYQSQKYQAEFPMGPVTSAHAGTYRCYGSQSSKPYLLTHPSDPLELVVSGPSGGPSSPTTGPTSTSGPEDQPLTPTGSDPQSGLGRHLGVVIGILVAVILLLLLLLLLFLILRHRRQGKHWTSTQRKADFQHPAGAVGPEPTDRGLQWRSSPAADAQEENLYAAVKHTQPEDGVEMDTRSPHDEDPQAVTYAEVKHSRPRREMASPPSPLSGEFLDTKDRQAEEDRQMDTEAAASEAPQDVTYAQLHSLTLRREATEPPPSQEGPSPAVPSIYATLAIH
T1 sequence (P59901 24-499): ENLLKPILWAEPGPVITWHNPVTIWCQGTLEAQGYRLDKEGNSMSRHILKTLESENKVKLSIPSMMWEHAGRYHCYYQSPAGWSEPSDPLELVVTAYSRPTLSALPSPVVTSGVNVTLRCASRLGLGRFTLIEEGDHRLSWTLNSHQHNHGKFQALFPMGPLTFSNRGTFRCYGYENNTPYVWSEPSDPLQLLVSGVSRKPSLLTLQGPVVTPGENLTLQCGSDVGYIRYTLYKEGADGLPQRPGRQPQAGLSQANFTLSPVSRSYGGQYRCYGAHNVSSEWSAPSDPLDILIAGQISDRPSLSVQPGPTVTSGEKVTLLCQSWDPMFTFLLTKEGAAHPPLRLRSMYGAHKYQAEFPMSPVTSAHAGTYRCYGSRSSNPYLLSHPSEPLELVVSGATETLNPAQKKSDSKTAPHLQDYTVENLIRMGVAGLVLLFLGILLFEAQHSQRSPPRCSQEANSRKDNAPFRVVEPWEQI

Row | MFI [1] [MFI] | binding result [1] | MFI [2] [MFI] | binding result [2] | MFI [3] [MFI] | binding result [3] | MFI [4] [MFI] | binding result [4] | MFI [5] [MFI] | binding result [5] | MFI (human LILRB1 on cells [6]) [MFI] | MFI [7] [MFI] | binding result [7] | MFI [8] [MFI] | binding result [8] | MFI [9] [MFI] | binding result [9] | MFI (human LILRB2 on cells [10]) [MFI] | EC50 [11] [µg/mL] | EC50 [12] [µg/mL] | Binder | also measured
1 | 108 | no binding (tested: 1 µg/mL) | 81 | no binding (tested: 1 µg/mL) | 83.6 | no binding (tested: 1 µg/mL) | 135 | no binding (tested: 1 µg/mL) | 26.2 | no binding (tested: 1 µg/mL) | 997 | 71 | no binding (tested: 1 µg/mL) | 27.2 | no binding (tested: 1 µg/mL) | 264 | no binding (tested: 1 µg/mL) | 6680 | 0.284 | 0.0461 | B21H1-45 (antibody, human IgG1, kappa, humanized IgG1/kappa, VH4+VL5) heavy: not shown light: DIQMTQTPSTVEASVGGTVTITCQASGNIYSFLAWYQQKPGQPPKLLIYTASNLETGVPSRFSGSGSGTEYTLTISGLQSDDAATYYCLGGLYSSDVSYAFGGGTEVVVKRTVAAPSVFIFPPSDEQLKSGTASVVCLLNNFYPREAKVQWKVDNALQSGNSQESVTEQDSKDSTYSLSSTLTLSKADYEKHKVYACEVTHQGLSSPVTKSFNRGEC | EC50 [13]: 0.0134 µg/mL; EC50 (human LILRB2 on cells [14]): 0.00086 µg/mL; EC50 (human LILRB1 on cells [15]): 0.0616 µg/mL
2 | 138 | no binding (tested: 1 µg/mL) | 93.9 | no binding (tested: 1 µg/mL) | 90.6 | no binding (tested: 1 µg/mL) | 148 | no binding (tested: 1 µg/mL) | 27.4 | no binding (tested: 1 µg/mL) | 990 | 78.2 | no binding (tested: 1 µg/mL) | 32.4 | no binding (tested: 1 µg/mL) | 280 | no binding (tested: 1 µg/mL) | 5320 | 0.377 | 0.0318 | B21H1-25 (antibody, human IgG1, kappa, humanized IgG1/kappa, VH2+VL5) heavy: not shown light: DIQMTQTPSTVEASVGGTVTITCQASGNIYSFLAWYQQKPGQPPKLLIYTASNLETGVPSRFSGSGSGTEYTLTISGLQSDDAATYYCLGGLYSSDVSYAFGGGTEVVVKRTVAAPSVFIFPPSDEQLKSGTASVVCLLNNFYPREAKVQWKVDNALQSGNSQESVTEQDSKDSTYSLSSTLTLSKADYEKHKVYACEVTHQGLSSPVTKSFNRGEC | EC50 [13]: 0.0095 µg/mL; EC50 (human LILRB2 on cells [14]): 0.0009 µg/mL; EC50 (human LILRB1 on cells [15]): 0.0782 µg/mL
3 | 125 | no binding (tested: 1 µg/mL) | 86.2 | no binding (tested: 1 µg/mL) | 87 | no binding (tested: 1 µg/mL) | 141 | no binding (tested: 1 µg/mL) | 25.6 | no binding (tested: 1 µg/mL) | 985 | 74.5 | no binding (tested: 1 µg/mL) | 28.6 | no binding (tested: 1 µg/mL) | 246 | no binding (tested: 1 µg/mL) | 6050 | 0.286 | 0.0287 | B21H1-24 (antibody, human IgG1, kappa, humanized IgG1/kappa, VH2+VL4) heavy: not shown light: DVVMTQSPSTVSASVGDRVTLTCQASGNIYSFLAWYQQKPGQPPKLLIYTASNLETGVPDRFSGSGSGTDYTLTISSLQADDFATYYCLGGLYSSDVSYAFGQGTKVEIKRTVAAPSVFIFPPSDEQLKSGTASVVCLLNNFYPREAKVQWKVDNALQSGNSQESVTEQDSKDSTYSLSSTLTLSKADYEKHKVYACEVTHQGLSSPVTKSFNRGEC | EC50 [13]: 0.00864 µg/mL; EC50 (human LILRB2 on cells [14]): 0.00142 µg/mL; EC50 (human LILRB1 on cells [15]): 0.0595 µg/mL
